According to publication doi:10.1101/2020.04.14.041327 (bioRxiv, 2020):

Assays:
[1] = biological target: linear M1-linked tetra-ubiquitin (UniProt P0CG48); test: SPR
[2] = biological target: linear M1-linked tri-ubiquitin (UniProt P0CG48); test: SPR
[3] = biological target: linear M1-linked tetra-ubiquitin (UniProt P0CG48); test: ITC
[4] = biological target: linear M1-linked tri-ubiquitin (UniProt P0CG48); test: ITC
SEC-MALS = biological target: the molecule itself; test: SEC-MALS
[5] = biological target: linear M1-linked tetra-ubiquitin (UniProt P0CG48); test: SEC-MALS
[6] = biological target: linear M1-linked tri-ubiquitin (UniProt P0CG48); test: SEC-MALS

linear M1-linked tetra-ubiquitin, sequence (P0CG48 1-304): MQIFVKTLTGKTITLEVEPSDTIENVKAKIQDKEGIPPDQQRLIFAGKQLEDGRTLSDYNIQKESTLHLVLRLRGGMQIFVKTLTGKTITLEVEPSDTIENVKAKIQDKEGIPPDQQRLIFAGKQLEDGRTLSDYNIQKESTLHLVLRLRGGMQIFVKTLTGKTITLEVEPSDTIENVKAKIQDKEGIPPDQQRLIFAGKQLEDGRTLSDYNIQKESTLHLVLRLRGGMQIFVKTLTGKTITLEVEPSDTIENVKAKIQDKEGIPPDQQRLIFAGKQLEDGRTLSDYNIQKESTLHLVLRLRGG
linear M1-linked tri-ubiquitin, sequence (P0CG48 1-228): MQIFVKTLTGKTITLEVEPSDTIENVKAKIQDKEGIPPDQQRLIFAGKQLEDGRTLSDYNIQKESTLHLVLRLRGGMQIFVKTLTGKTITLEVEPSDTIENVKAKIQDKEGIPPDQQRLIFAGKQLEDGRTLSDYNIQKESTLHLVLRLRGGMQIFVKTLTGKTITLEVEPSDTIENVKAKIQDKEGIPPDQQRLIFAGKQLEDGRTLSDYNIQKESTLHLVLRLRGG

B1: Human NEMO 258-350 C347S (NEMO UBAN domain) (domain or fragment)
chain: MQLEDLKQQLQQAEEALVAKQEVIDKLKEEAEQHKIVMETVPVLKAQADIYKADFQAERQAREKLAEKKELLQEQLEQLQREYSKLKASSQES
Kd [1]: 6.4 µM
Kd [2]: 9.6 µM
Kd [3]: 4.1 µM
dH [3]: -4.49 kcal/mol
Kd [4]: 1.6 µM
dH [4]: -4.28 kcal/mol
binding result (SEC-MALS): binds
stoichiometry N [5]: 2 NEMO monomers per poly-ubiquitin
stoichiometry N [6]: 2 NEMO monomers per poly-ubiquitin
